Measured values: publication PMC9187738, “Live imaging-based assay for visualising species-specific interactions in gamete adhesion molecules” (Scientific Reports, 2022)

T1: mouse mCherry-JUNO (mouse, UniProt Q9EQF4 20-222)
T1 construct: JUNO, mouse; CDS amplified from mouse cDNA; also called mouse JUNO; source: BHK-21 cells, transfected, on cells (mifepristone-inducible or cytomegalovirus promoter); also HEK293T cells, transfected, on cells; not shown: mCherry, internal (just after the signal peptide), kept
T1 sequence (looked up): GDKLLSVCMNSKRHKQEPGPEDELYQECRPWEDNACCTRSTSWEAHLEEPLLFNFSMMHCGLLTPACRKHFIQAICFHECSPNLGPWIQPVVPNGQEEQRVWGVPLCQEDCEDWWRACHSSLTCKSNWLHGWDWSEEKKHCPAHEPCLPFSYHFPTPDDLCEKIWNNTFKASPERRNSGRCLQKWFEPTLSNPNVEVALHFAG

B1: mouse IZUMO1-Venus (natural protein, UniProt Q9D9J7 22-397, looked up)
chain: CIKCDQFVTDALKTFENTYLNDHLPHDIHKNVMRMVNHEVSSFGVVTSAEDSYLGAVDENTLEQATWSFLKDLKRITDSDLKGELFIKELLWMLRHQKDIFNNLARQFQKEVLCPNKCGVMSQTLIWCLKCEKQLHICRKSLDCGERHIEVHRSEDLVLDCLLSWHRASKGLTDYSFYRVWENSSETLIAKGKEPYLTKSMVGPEDAGNYRCVLDTINQGHATVIRYDVTVLPPKHSEENQPPNIITQEEHETPVHVTPQTPPGQEPESELYPELHPELYPELIPTVAQNPEKKMKTRLLILLTLGFVVLVASIIISVLHFRKVSAKLKNASDEVKPTASGSKSDQSLSQQMGLKKASQADFNSDYSGDKSEATEN
notes: IZUMO1, mouse; CDS amplified from mouse cDNA; The methods say Venus or mTurquoise2 for IZUMO1, SPACA6 and CD9; the parent of the W148A mutant is named IZUMO-Venus; also called IZUMO-Venus; source: BHK-21 cells, transfected, on cells (mifepristone-inducible or cytomegalovirus promoter); also HEK293T cells, transfected, on cells; not shown: Venus, C-terminal, kept
B2: human IZUMO1 (natural protein, UniProt Q8IYV9 22-350, looked up)
chain: CVICDPSVVLALKSLEKDYLPGHLDAKHHKAMMERVENAVKDFQELSLNEDAYMGVVDEATLQKGSWSLLKDLKRITDSDVKGDLFVKELFWMLHLQKETFATYVARFQKEAYCPNKCGVMLQTLIWCKNCKKEVHACRKSYDCGERNVEVPQMEDMILDCELNWHQASEGLTDYSFYRVWGNNTETLVSKGKEATLTKPMVGPEDAGSYRCELGSVNSSPATIINFHVTVLPKMIKEEKPSPNIVTPGEATTESSISLQPLQPEKMLASRLLGLLICGSLALITGLTFAIFRRRKVIDFIKSSLFGLGSGAAEQTQVPKEKATDSRQQ
notes: IZUMO1, human; gene synthesised artificially (Integrated DNA technologies); also called IZUMO1 Human; source: BHK-21 cells, transfected, on cells; also HEK293T cells, transfected, on cells; not shown: Venus or mTurquoise2, C-terminal, kept

Columns and labels:
human JUNO = molecular target: T2, human JUNO (human, UniProt A6ND01 20-228); assay: live imaging-based adhesion molecule (LIAM) assay; BHK cells, non-inducible expression (cytomegalovirus promoter); separately transfected cells mixed in equal amounts 4 h after transfection, incubated 20 h, imaged every 6 min for 12 h at 40x, 37 °C, 5% CO2; read-outs: accumulation at the cell interface and translocation to the opposite cell, % of contacting cell pairs; details: partners not purified
T2 construct: JUNO, human; gene synthesised artificially (Integrated DNA technologies); also called JUNO Human; source: BHK-21 cells, transfected, on cells; not shown: mCherry, internal (just after the signal peptide), kept
T2 sequence (A6ND01 20-228): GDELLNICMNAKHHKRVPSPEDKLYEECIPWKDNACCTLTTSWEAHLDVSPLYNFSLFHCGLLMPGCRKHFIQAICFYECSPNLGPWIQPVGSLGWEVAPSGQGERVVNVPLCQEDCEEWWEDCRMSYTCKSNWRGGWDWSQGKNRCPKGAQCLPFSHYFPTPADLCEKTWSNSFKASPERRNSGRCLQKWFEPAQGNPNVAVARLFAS

mouse mCherry-JUNO = molecular target: T1, mouse mCherry-JUNO; assay: as above; details: partners not purified

Row | Binder | IZUMO1 accumulation (% of contacting cell pairs) (human JUNO) [%] | IZUMO1 accumulation (% of contacting cell pairs) (mouse mCherry-JUNO) [%]
1 | B1 | 50 | 72
2 | B2 | 27 | 
